In patent US20200103410A1 (ECS PROGASTRIN, published 2020):

T1: human progastrin (full length) (human)
T1 construct: also called hPG; PG
T1 chain: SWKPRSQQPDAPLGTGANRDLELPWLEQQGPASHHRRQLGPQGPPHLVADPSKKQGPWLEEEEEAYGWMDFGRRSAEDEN

B1: mAb4 (hybridoma 20D2C3G2) (antibody, V domains shown)
VH: QVQLQQSGAELMKPGASVKISCKATGYTFSSSWIEWLKQRPGHGLEWIGEFLPGSGSTDYNEKFKGKATFTADTSSDTAYMLLSSLTSEDSAVYYCATDGNYDWFAYWGQGTLVTVSA
VL: DLVMTQTPLSLPVSLGDQASISCRSSQSLVHSSGVTYLHWYLQKPGQSPKLLIYKVSNRFSGVPDRFSGSGSGTDFTLKISRVEAEDLGVYFCSQSTHVPPTFGSGTKLEIK
notes: Murine monoclonal antibody
B2: mAb19 (hybridoma 1B3B4F11) (antibody, V domains shown)
VH: DVQLQESGPGLVKPSQSLSLTCTVTGYSITSDYAWNWIRQFPGNKLEWMGYISFSGYTSYNPSLKSRISVTRDTSRNQFFLQLTSVTTEDTATYYCAREVNYGDSYHFDYWGQGTIVTVSS
VL: QLALTQSSSASFSLGASAKLTCTLSSQHRTYTIEWYQQQSLKPPKYVMEVKKDGSHSTGHGIPDRFSGSSSGADRYLSISNIQPEDEAIYICGVGDAIKGQSVFVFGGGTKVTVL
notes: Murine monoclonal antibody
B3: mAb3 (hybridoma 6B5B11C10) (antibody, V domains shown)
VH: EVQLQQSGTVLARPGASVKMSCKASGYIFTSYWVHWVKQRPGQGLEWIGGFYPGNSDSRYNQKFKGKATLTAVTSASTAYMDLSSLTNEDSAVYFCTRRDSPQYWGQGTTLTVSS
VL: DVLMTQTPLSLPVSLGDQASISCRSSQSIVHSNGNTYLEWYLQKPGQSPKLLIYKVSNRFSGVPDRFSGSGSGTDFTLKISRLEAEDLGVYYCFQGSHVPFTFGGGTKLEIK
notes: Murine monoclonal antibody
B4: mAb13 (hybridoma 2C6C3C7) (antibody, V domains shown)
VH: EVQLVESGGGLVQPGGSLKLSCAASGFIFSSYGMSWVRQSPDRRLELVASINTFGDRTYYPDSVKGRFTISRDNAKNTLYLQMTSLKSEDTAIYYCARGTGTYWGQGTTLTVSS
VL: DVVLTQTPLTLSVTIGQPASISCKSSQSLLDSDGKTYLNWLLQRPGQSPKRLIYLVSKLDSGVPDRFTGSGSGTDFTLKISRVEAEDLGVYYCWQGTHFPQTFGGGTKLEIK
notes: Murine monoclonal antibody
B5: mAb16 (hybridoma 1E9D9B6) (antibody, V domains shown)
VH: QVQLQQSGAELVKPGASVKLSCKASGYTFTSYYMYWVKQRPGQGLEWIGEINPSNGGTNFNEKFKSKATLTVDKSSSTAYMQLSSLTSEDSAVYYCTRGGYYPFDYWGQGTTLTVSS
VL: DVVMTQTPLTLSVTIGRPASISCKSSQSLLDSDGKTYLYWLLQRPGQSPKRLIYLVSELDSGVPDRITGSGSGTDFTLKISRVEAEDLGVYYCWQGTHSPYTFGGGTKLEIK
notes: Murine monoclonal antibody

Biological target: T1, human progastrin (full length)
Assay: epitope mapping (no details given)

Binder | binding result
B1 | binds
B2 | binds
B3 | binds
B4 | binds
B5 | binds
